T1: human MerTK overexpressed on CHO cells (CHO-huMerTK OE) (human, UniProt Q12866 21-999)
T1 construct: also called human MerTK overexpressing CHO cells; not shown: mGFP tag of the lentiviral ORF clone
T1 sequence: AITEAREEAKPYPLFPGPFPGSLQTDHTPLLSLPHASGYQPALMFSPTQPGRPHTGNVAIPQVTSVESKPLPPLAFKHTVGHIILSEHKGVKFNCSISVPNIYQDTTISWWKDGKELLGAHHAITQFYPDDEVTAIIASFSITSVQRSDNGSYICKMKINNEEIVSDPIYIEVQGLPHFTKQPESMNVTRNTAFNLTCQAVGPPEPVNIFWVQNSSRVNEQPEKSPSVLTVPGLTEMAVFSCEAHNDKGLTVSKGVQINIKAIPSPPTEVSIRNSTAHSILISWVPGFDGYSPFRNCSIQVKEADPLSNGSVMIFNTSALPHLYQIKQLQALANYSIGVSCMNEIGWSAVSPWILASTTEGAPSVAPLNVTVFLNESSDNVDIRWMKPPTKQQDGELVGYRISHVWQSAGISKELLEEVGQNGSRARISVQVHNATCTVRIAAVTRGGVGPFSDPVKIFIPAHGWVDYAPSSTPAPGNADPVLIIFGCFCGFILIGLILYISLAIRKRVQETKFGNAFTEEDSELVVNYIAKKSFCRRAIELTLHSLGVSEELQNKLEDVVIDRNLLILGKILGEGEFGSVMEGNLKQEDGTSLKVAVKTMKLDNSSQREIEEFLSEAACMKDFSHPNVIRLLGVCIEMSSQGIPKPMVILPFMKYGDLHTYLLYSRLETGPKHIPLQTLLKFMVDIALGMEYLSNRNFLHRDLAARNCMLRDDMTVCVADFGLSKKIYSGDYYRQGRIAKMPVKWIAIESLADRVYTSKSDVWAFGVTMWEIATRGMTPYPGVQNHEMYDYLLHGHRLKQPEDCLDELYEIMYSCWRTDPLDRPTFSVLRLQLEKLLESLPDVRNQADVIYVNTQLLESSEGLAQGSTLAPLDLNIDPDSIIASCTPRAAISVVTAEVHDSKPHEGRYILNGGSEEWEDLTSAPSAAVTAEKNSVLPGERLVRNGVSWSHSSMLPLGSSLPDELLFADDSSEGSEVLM

T2: human MerTK on M2c-differentiated human macrophages (human, UniProt Q12866 21-999)
T2 sequence: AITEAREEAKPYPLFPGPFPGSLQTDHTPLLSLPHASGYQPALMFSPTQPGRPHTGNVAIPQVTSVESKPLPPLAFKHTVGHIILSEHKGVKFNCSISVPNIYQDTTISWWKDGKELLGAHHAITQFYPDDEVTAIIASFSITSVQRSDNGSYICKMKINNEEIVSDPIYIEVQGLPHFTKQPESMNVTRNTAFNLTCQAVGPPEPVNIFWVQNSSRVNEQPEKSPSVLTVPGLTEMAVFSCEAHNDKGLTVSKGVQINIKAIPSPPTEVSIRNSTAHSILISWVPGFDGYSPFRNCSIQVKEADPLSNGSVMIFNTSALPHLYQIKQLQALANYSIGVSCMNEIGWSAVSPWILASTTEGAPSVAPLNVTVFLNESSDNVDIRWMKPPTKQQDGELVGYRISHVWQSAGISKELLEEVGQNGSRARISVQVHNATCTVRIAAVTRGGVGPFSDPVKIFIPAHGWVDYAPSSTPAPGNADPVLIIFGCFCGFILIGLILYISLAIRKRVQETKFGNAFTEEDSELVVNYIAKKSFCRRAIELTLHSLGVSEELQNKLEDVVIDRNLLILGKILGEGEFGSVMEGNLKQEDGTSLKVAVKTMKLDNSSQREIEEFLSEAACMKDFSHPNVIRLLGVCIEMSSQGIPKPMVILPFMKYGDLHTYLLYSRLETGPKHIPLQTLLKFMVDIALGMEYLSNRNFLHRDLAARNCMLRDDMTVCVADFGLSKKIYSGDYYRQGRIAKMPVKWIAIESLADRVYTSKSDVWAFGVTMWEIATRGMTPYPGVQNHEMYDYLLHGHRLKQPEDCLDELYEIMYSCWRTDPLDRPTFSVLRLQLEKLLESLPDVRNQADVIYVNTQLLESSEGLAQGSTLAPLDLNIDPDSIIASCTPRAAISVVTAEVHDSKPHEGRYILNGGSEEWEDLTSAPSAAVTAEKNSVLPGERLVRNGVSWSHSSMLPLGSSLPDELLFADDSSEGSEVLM

T3: recombinant murine MerTK extracellular domain (mouse, UniProt Q60805 19-497)
T3 construct: The entry starts with the native signal peptide; also called moMerTK; murine MerTK ECD; not shown: tag
T3 sequence: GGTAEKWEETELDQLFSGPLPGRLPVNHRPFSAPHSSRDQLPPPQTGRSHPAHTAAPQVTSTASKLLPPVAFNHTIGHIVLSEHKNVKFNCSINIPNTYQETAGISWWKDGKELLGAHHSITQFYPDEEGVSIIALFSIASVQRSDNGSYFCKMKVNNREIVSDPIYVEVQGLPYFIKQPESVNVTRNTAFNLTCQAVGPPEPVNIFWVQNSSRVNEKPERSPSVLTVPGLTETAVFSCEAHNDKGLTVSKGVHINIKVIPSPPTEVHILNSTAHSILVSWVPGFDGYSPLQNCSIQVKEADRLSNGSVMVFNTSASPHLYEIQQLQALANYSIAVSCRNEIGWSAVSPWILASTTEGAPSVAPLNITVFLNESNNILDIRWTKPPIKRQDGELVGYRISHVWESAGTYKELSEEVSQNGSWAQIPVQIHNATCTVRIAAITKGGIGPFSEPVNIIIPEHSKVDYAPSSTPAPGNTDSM

T4: recombinant human MerTK extracellular domain (human, UniProt Q12866 21-505)
T4 construct: The entry starts with the native signal peptide, while the construct used a heterologous signal peptide; also called huMerTK; human MerTK ECD; not shown: tag
T4 sequence: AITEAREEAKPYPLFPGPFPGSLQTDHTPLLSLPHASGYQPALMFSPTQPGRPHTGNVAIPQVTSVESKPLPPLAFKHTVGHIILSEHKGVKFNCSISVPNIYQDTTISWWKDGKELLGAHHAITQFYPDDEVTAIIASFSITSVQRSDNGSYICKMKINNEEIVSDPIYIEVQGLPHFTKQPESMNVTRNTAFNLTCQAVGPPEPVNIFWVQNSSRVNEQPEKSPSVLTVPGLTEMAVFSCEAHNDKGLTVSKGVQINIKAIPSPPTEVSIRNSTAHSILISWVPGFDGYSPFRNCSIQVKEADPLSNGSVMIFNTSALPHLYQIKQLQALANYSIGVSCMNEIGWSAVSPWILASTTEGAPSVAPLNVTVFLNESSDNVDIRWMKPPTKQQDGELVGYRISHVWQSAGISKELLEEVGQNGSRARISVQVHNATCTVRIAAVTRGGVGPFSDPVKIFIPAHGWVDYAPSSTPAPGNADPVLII

T5: recombinant cynomolgus MerTK extracellular domain (cynomolgus, UniProt Q12866 21-505 (human entry))
T5 construct: The entry starts with the native signal peptide; also called cynoMerTK; cyno MerTK ECD; not shown: tag
T5 chain: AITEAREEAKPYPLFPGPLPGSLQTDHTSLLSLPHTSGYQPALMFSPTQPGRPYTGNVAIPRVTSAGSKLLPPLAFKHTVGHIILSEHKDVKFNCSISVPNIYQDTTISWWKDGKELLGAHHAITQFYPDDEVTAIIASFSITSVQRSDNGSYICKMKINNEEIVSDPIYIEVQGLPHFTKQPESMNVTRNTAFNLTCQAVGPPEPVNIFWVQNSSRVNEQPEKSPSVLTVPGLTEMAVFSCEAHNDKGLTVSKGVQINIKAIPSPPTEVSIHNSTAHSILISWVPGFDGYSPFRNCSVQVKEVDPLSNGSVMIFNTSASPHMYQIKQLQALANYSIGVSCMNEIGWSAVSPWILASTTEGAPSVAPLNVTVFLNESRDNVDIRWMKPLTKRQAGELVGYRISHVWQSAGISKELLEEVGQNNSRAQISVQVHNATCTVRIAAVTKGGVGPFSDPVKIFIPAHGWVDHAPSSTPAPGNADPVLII


How the values were obtained:
[1] = molecular target: T1, human MerTK overexpressed on CHO cells …; assay: FACS, Dylight650-conjugated antibody on CHO-huMerTK OE cells, MFI against Ab concentration
Description: (§1) Human macrophages were differentiated from human monocytes for 7 days in the presence of human M-CSF, resulting in M2c-differentiated human macrophages. After 7 days, the differentiated human macrophages were harvested (by scraping), resuspended in PBS, and plated on 96-well plates for use. CHO cells overexpressing human MerTK (CHO-huMerTK OE) or M2c-differentiated human macrophages were stained with Dylight650-conjugated monovalent anti-MerTK antibodies or bivalent anti-MerTK antibodies (i.e., anti-MerTK antibodies comprising two full-length heavy chains and two full-length light chains) for 30 min on ice. A range of antibody concentrations were used in these studies to obtain binding curves. […] Cells were fixed and then acquired on a BD FACS Canto II cytometer. The mean fluorescence intensity (MFI) was calculated using FlowJo software and Kd value was calculated using Prism software.

[2] = molecular target: T2, human MerTK on M2c-differentiated human …; assay: cell-based or functional assay
[3] = molecular target: T1, human MerTK overexpressed on CHO cells …; assay: FACS, Dylight650-conjugated antibody titrated on CHO-huMerTK OE cells; Kd fitted in Prism from MFI
Description: as §1

[4] = molecular target: T1, human MerTK overexpressed on CHO cells …; assay: FACS on CHO-huMerTK OE cells; reference is monovalent MTK-33.11
Description: as §1

[5] = molecular target: T2, human MerTK on M2c-differentiated human …; assay: FACS on M2c-differentiated human macrophages; reference is monovalent MTK-33.11
Description: as §1

[6] = molecular target: T3, recombinant murine MerTK extracellular …; assay: SPR (Carterra LSA), antibody immobilised on an HC30 chip, MerTK ECD as analyte; estimate from a 1:1 fit
Protocol: (§2) Binding kinetics of monovalent anti-MerTK antibodies of the present disclosure to human, cyno, and murine MerTK were evaluated using a Carterra LSA instrument. […] A HC30 sensor chip (Carterra) was activated using the single channel flow cell with a 7-minute injection of a 1:1:1 mixture of 100 mM MES pH 5.5, 100 mM sulfo-NHS, 400 mM EDC (all reconstituted in MES pH 5.5; 100 μl of each mixed in vial immediately before running assay). After switching to the multi-channel array flow cell, the antibodies were injected over the activated chip in a 96-spot array for 15 minutes. A duplicate injection of the antibodies on a second block of the chip was spotted as before. The remaining unconjugated active groups on the chip were then blocked by injecting 1M Ethanolamine pH 8.5 (Carterra) for 7 minutes using the single channel flow cell.
(§3) After priming with running buffer (HBS-TE, Carterra) with 0.5 mg/ml BSA (Sigma), the immobilized anti-MerTK antibodies were tested for their ability to bind to several forms of recombinant MerTK extracellular domain, including that of human, cynomolgus, and mouse orthologs as described above. Estimates of affinity were generated by injecting each analyte over the entire antibody array using the single channel flow cell. […] Dissociation was followed for 300 seconds before regenerating after each injection with 2×30 seconds of 10 mM Glycine pH2.5. Three buffer blanks were run between each series (one species per series). After all concentrations of all three species of MerTK were injected, a duplicate set of injections was performed, so that each concentration for all three species was injected in widely spaced duplicates. Data were processed and analyzed using NextGenKIT high-throughput kinetics analysis software (Carterra).

[7] = molecular target: T4, recombinant human MerTK extracellular …; assay: as above
Protocol: as §2, §3

[8] = molecular target: T5, recombinant cynomolgus MerTK …; assay: as above
Protocol: as §2, §3

[9] = molecular target: T2, human MerTK on M2c-differentiated human …; assay: cell-based or functional assay; remark: listed apart in the source
[10] = molecular target: T2, human MerTK on M2c-differentiated human …; assay: cell-based or functional assay; remark: listed apart in the source
[11] = molecular target: T2, human MerTK on M2c-differentiated human …; assay: FACS, Dylight650-conjugated antibody titrated on M2c-differentiated human macrophages; Kd fitted in Prism from MFI
Description: as §1

[12] = molecular target: T3, recombinant murine MerTK extracellular …; assay: SPR (Carterra LSA), antibody immobilised on an HC30 chip, MerTK ECD as analyte
Protocol: as §2
After priming with running buffer (HBS-TE, Carterra) with 0.5 mg/ml BSA (Sigma), the immobilized anti-MerTK antibodies were tested for their ability to bind to several forms of recombinant MerTK extracellular domain, including that of human, cynomolgus, and mouse orthologs as described above. Estimates of affinity were generated by injecting each analyte over the entire antibody array using the single channel flow cell. […] Data were processed and analyzed using NextGenKIT high-throughput kinetics analysis software (Carterra).

Row | Binder | EC50 (read off the curve) [1] | Average pAKT IC50 (nM) in the presence of huGas6 [2] | Kd [3] | fold higher affinity than monovalent MTK-33.11 [4] | fold higher affinity than monovalent MTK-33.11 [5] | Kd [6] | Kd [7] | Kd [8] | Average fold change in pAKT activity in the absence of huGas6 [9] | Efferocytosis blocking Average IC50 [10] | Kd [11] | binding result [12]
1 | bivalent anti-MerTK antibody MTK-33.11 LALAPS (antibody, human IgG1, kappa, L234A L235A, V domains shown, Two full-length heavy chains and two full-length light chains, human IgG1 LALAPS; Dylight650-conjugated in the FACS assay; also called MTK-33.11 bivalent LALAPS; MTK-33.11 full IgG) VH: QVQLVQSGAEVKKPGASVKVSCKASGYTFTSYWMHWVRQAPGQGLEWIGVIDPSDNYINYNQKFQGRVTMTRDTSTSTVYMELSSLRSEDTAVYYCAREAWTRGYFDYWGQGTLVTVSS VL: DIQMTQSPSSLSASVGDRVTITCQASRSVRNTVAWYQQKPGKAPKLLIYYASNRYTGVPSRFSGSGSGTDFTFTISSLQPEDIATYYCQQDYRSPFTFGQGTKLEIKR | ~4 nM | 1.25 nM | 0.439 nM | ~10 fold | ~5 fold | 50 nM | 2 nM | 2 nM | 1.41 fold | 0.341 nM | 2 nM | 
2 | monovalent anti-MerTK antibody MTK-16.2 LALAPS (antibody, human IgG1, kappa, L234A L235A, One-armed antibody, human IgG1 LALAPS; Dylight650-conjugated in the FACS assay; also called MTK-16.2 monovalent LALAPS; MTK-16.2 monoarm) heavy: not shown light: DIQMTQSPSSLSASVGDRVTITCRASQNVRTAVAWYQQKPGKAPKRLIYLASNRHTGVPSRFSGSGSGTEFTLTISNLQPEDFATYYCLQHWNYPLTFGGGTKLEIKRTVAAPSVFIFPPSDEQLKSGTASVVCLLNNFYPREAKVQWKVDNALQSGNSQESVTEQDSKDSTYSLSSTLTLSKADYEKHKVYACEVTHQGLSSPVTKSFNRGEC DKTHTCPPCPAPEAAGGPSVFLFPPKPKDTLMISRTPEVTCVVVDVSHEDPEVKFNWYVDGVEVHNAKTKPREEQYNSTYRVVSVLTVLHQDWLNGKEYKCKVSNKALPASIEKTISKAKGQPREPQVYTLPPSRDELTKNQVSLSCAVKGFYPSDIAVEWESNGQPENNYKTTPPVLDSDGSFFLVSKLTVDKSRWQQGNVFSCSVMHEALHNHYTQKSLSLSPGK |  | 15.3 nM | 40.5 nM |  |  |  | 50 nM | 60 nM | 1.22 fold | 37.9 nM | 77.8 nM | no binding
3 | bivalent anti-MerTK antibody MTK-16.2 LALAPS (antibody, human IgG1, kappa, L234A L235A, V domains shown, Two full-length heavy chains and two full-length light chains, human IgG1 LALAPS; Dylight650-conjugated in the FACS assay; also called MTK-16.2 bivalent LALAPS; MTK-16.2 full IgG) VH: QVQLVQSGSELKKPGASVKVSCKASGYTFTNHGMNWVRQAPGQGLEWMGWINTYTGEPTYADDFKGRFVFSLDTSVSTAYLQISSLKAEDTAVYYCARKGVTAARYFDYWGQGTLVTVSS VL: DIQMTQSPSSLSASVGDRVTITCRASQNVRTAVAWYQQKPGKAPKRLIYLASNRHTGVPSRFSGSGSGTEFTLTISNLQPEDFATYYCLQHWNYPLTFGGGTKLEIKR | ~20 nM | 3.22 nM | 42.5 nM |  |  |  | 50 nM | 60 nM | 1.57 fold | 0.436 nM | 51.9 nM | no binding
